{"source": "paper PMC8571082", "binders": {"B1": {"name": "factor inhibiting HIF-1 (FIH-1), full-length, Q9NWT6 1-349 (enzyme)", "chain": "MAATAAEAVASGSGEPREEAGALGPAWDESQLRSYSFPTRPIPRLSQSDPRAEELIENEEPVVLTDTNLVYPALKWDLEYLQENIGNGDFSVYSASTHKFLYYDEKKMANFQNFKPRSNREEMKFHEFVEKLQDIQQRGGEERLYLQQTLNDTVGRKIVMDFLGFNWNWINKQQGKRGWGQLTSNLLLIGMEGNVTPAHYDEQQNFFAQIKGYKRCILFPPDQFECLYPYPVHHPCDRQSQVDFDNPDYERFPNFQNVVGYETVVGPGDVLYIPMYWWHHIESLLNGGITITVNFWYKGAPTPKRIEYPLKAHQKVAIMRNIEKMLGEALGNPQEVGPLLNTMIKGRYN"}}, "key": {"[1]": {"target": "T1, factor inhibiting HIF-1 (FIH-1), full-length (human), Q9NWT6", "assay": "SEC-MALS; FIH-1 alone at 70 μM, 50 μl on Superdex 200 10/300 GL; 35 mM Na-phosphate pH 7.5, 300 mM NaCl, 500 μM αKG", "details": "remark: other sources report otherwise"}, "[2]": {"target": "T1, factor inhibiting HIF-1 (FIH-1), …", "assay": "SEC; FIH-1 alone, wild type at ~7 μM; profiles of FIH-1 WT and L340R", "details": "remark: other sources report otherwise"}}, "data": [{"binder": "B1", "values": [{"measurement": "stoichiometry N", "setting": "[1]", "value": 2}, {"measurement": "stoichiometry N", "setting": "[2]", "value": 2}]}]}
